Earlier results in publication PMC8645602.
Like-named read-outs stand apart in the source and are kept apart here.

Tests used:
Tyr9 [1] = biological target: Tyr9 (UniProt position 9, KPKLHYFNARG)
Tyr9 [2] = biological target: Tyr9 (UniProt position 9, KPKLHYFNGRG); details: not stated (the article does not say whether the enzyme was free or glutathione-bound)

Q: With “Glutathione transferase A1-1 (HsaGST A1-1) (Homo sapiens)” as the substance, how does the pKa (Tyr9 [1]; free enzyme (no glutathione)) read?
A: 8.1

Q: What about the pKa (Tyr9 [1]; glutathione bound) of the same substance?
A: 9.2

Q: With “Glutathione transferase A3-3 (HsaGST A3-3) (Homo sapiens)” as the substance, how does the pKa (Tyr9 [2]) read?
A: 7.9
